Tests used:
B.63521 (HIV-1) = experiment: SPR
C.CH505 (HIV-1) = experiment: SPR

Row | Substance | Kd (B.63521 (HIV-1)) | Kd (C.CH505 (HIV-1))
1 | CH103 | 2.4 nM | 20 nM
2 | CH104 | 7.1 nM | 8.9 nM
3 | CH105 | 7 nM | 7.4 nM
4 | CH106 | 5.1 nM | 5.8 nM

Source: US10004800
